Molecular target: purified, recombinant human FMRP protein

Protein | thio-phosphorylation in an in vitro kinase reaction (ATP-γ-S; western blot with anti-thiophosphate ester antibody) | IRE1-induced phosphorylation sites on FMRP (LC-MS/MS) | phosphorylation in an in vitro kinase reaction of purified proteins (western blot for ThioP; LC-MS/MS)
inositol-requiring enzyme-1 (IRE1), wild type, expressed from plasmid in HEK293T cells (protein) IFGSTSTVTLPETLLFVSTLDGSLHAVSKRTGSIKWTLKEDPVLQVPTHVEEPAFLPDPNDGSLYTLGSKNNEGLTKLPFTIPELVQASPCRSSDGILYMGKKQDIWYVIDLLTGEKQQTLSSAFADSLCPSTSLLYLGRTEYTITMYDTKTRELRWNATYFDYAASLPEDDVDYKMSHFVSNGDGLVVTVDSESGDVLWIQNYASPVVAFYVWQREGLRKVMHINVAVETLRYLTFMSGEVGRITKWKYPFPKETEAKSKLTPTLYVGKYSTSLYASPSMVHEGVAVVPRGSTLPLLEGPQTDGVTIGDKGECVITPSTDVKFDPGLKSKNKLNYLRNYWLLIGHHETPLSASTKMLERFPNNLPKHRENVIPADSEKKSFEEVINLVDQTSENAPTTVSRDVEEKPAHAPARPEAPVDSMLKDMATIILSTFLLIGWVAFIITYPLSMHQQQQLQHQQFQKELEKIQLLQQQQQQLPFHPPGDTAQDGELLDTSGPYSESSGTSSPSTSPRASNHSLCSGSSASKAGSSPSLEQDDGDEETSVVIVGKISFCPKDVLGHGAEGTIVYRGMFDNRDVAVKRILPECFSFADREVQLLRESDEHPNVIRYFCTEKDRQFQYIAIELCAATLQEYVEQKDFAHLGLEPITLLQQTTSGLAHLHSLNIVHRDLKPHNILISMPNAHGKIKAMISDFGLCKKLAVGRHSFSRRSGVPGTEGWIAPEMLSEDCKENPTYTVDIFSAGCVFYYVISEGSHPFGKSLQRQANILLGACSLDCLHPEKHEDVIARELIEKMIAMDPQKRPSAKHVLKHPFFWSLEKQLQFFQDVSDRIEKESLDGPIVKQLERGGRAVVKMDWRENITVPLQTDLRKFRTYKGGSVRDLLRAMRNKKHHYRELPAEVRETLGSLPDDFVCYFTSRFPHLLAHTYRAMELCSHERLFQPYYFHEPPEPQPPVTPDAL | In the reaction containing IRE1-WT, both proteins were thio-phosphorylated |  | 
kinase dead (KD) mutant IRE1 (K599A), expressed from plasmid in HEK293T cells (protein) IFGSTSTVTLPETLLFVSTLDGSLHAVSKRTGSIKWTLKEDPVLQVPTHVEEPAFLPDPNDGSLYTLGSKNNEGLTKLPFTIPELVQASPCRSSDGILYMGKKQDIWYVIDLLTGEKQQTLSSAFADSLCPSTSLLYLGRTEYTITMYDTKTRELRWNATYFDYAASLPEDDVDYKMSHFVSNGDGLVVTVDSESGDVLWIQNYASPVVAFYVWQREGLRKVMHINVAVETLRYLTFMSGEVGRITKWKYPFPKETEAKSKLTPTLYVGKYSTSLYASPSMVHEGVAVVPRGSTLPLLEGPQTDGVTIGDKGECVITPSTDVKFDPGLKSKNKLNYLRNYWLLIGHHETPLSASTKMLERFPNNLPKHRENVIPADSEKKSFEEVINLVDQTSENAPTTVSRDVEEKPAHAPARPEAPVDSMLKDMATIILSTFLLIGWVAFIITYPLSMHQQQQLQHQQFQKELEKIQLLQQQQQQLPFHPPGDTAQDGELLDTSGPYSESSGTSSPSTSPRASNHSLCSGSSASKAGSSPSLEQDDGDEETSVVIVGKISFCPKDVLGHGAEGTIVYRGMFDNRDVAVARILPECFSFADREVQLLRESDEHPNVIRYFCTEKDRQFQYIAIELCAATLQEYVEQKDFAHLGLEPITLLQQTTSGLAHLHSLNIVHRDLKPHNILISMPNAHGKIKAMISDFGLCKKLAVGRHSFSRRSGVPGTEGWIAPEMLSEDCKENPTYTVDIFSAGCVFYYVISEGSHPFGKSLQRQANILLGACSLDCLHPEKHEDVIARELIEKMIAMDPQKRPSAKHVLKHPFFWSLEKQLQFFQDVSDRIEKESLDGPIVKQLERGGRAVVKMDWRENITVPLQTDLRKFRTYKGGSVRDLLRAMRNKKHHYRELPAEVRETLGSLPDDFVCYFTSRFPHLLAHTYRAMELCSHERLFQPYYFHEPPEPQPPVTPDAL | but not in the reaction containing the IRE1-KD mutant |  | 
purified, recombinant human IRE1-kinase/RNase domains (amino acids 468-977) (protein) MHQQQQLQHQQFQKELEKIQLLQQQQQQLPFHPPGDTAQDGELLDTSGPYSESSGTSSPSTSPRASNHSLCSGSSASKAGSSPSLEQDDGDEETSVVIVGKISFCPKDVLGHGAEGTIVYRGMFDNRDVAVKRILPECFSFADREVQLLRESDEHPNVIRYFCTEKDRQFQYIAIELCAATLQEYVEQKDFAHLGLEPITLLQQTTSGLAHLHSLNIVHRDLKPHNILISMPNAHGKIKAMISDFGLCKKLAVGRHSFSRRSGVPGTEGWIAPEMLSEDCKENPTYTVDIFSAGCVFYYVISEGSHPFGKSLQRQANILLGACSLDCLHPEKHEDVIARELIEKMIAMDPQKRPSAKHVLKHPFFWSLEKQLQFFQDVSDRIEKESLDGPIVKQLERGGRAVVKMDWRENITVPLQTDLRKFRTYKGGSVRDLLRAMRNKKHHYRELPAEVRETLGSLPDDFVCYFTSRFPHLLAHTYRAMELCSHERLFQPYYFHEPPEPQPPVTPDAL |  | eight IRE1-induced phosphorylation sites on FMRP at serine (S362, S494, S497, S500, S504) and threonine (T502, T592, T594) | Both IRE1 and FMRP were phosphorylated in this reaction in an AMG-18-sensitive manner
